Results taken from PMC7666153, “The phosphorylated regulator of chemotaxis is crucial throughout biofilm biogenesis in Shewanella oneidensis” (NPJ Biofilms and Microbiomes, 2020).

Molecular target: the molecule itself
Assay: cross-linking; Strep-tagged CheY3 (11.8 µM) and His-tagged SO4207S (3.1 µM), together or separately, 5 mM EDC, 1 h at room temperature, 10 mM cacodylate buffer; SDS-PAGE and blot with HisProbe-HRP

B1: His-tagged SO4207S (soluble cytoplasmic domain of SO4207, D388 to N625) (domain or fragment, S. oneidensis, UniProt Q8E9Q9 388-625, looked up)
chain: DERKAKQRIQQEALKQAQKIRSAREEALKVEAETNERLEQKVQERTLELEITLRELHEVNQKLTEQSTIDSLTGVKNRSAFDKRLLAESRISRRQETPIALLMLDIDRFKSINDQFGHLAGDQALKLIAQTLQQHLKRPTDLVSRFGGEEFAIILPNTTADGALQVAESIRDTVSCIGLTWEGKPIPLTVSIGVSADVIMNEQHSTELLEQADKALYQAKNSGRNQVKLYAPAQTEPN
notes: diguanylate cyclase SO4207 of Shewanella oneidensis, cytoplasmic domain D388 to N625, devoid of the transmembrane segments; Cloned into pET21b; printed mass 30 kDa; also called pET-SO4207S; source: E. coli BL21 (DE3), purified (HisTrapFF); not shown: 6xHis-tag, C-terminal, kept
stoichiometry N: 2
